{
  "source": "patent US7071301",
  "experiment_in_all_cases": "cell-based or functional assay",
  "key": {"ERR Mutant 6 (mouse)": {"target": "ERR Mutant 6 (mouse) (UniProt Q09143)"}, "[1]": {"target": "Chimera II (mouse-human chimeric receptor, last part from ERR) (human; mouse)"}, "ERR Mutant 10 (mouse)": {"target": "ERR Mutant 10 (mouse) (UniProt Q09143)"}, "ERR Mutant 2 (mouse)": {"target": "ERR Mutant 2 (mouse) (UniProt Q09143)"}, "[2]": {"target": "murine ecotropic retroviral receptor (ERR) (mouse) (UniProt Q09143)"}, "ERR Mutant 8 (mouse)": {"target": "ERR Mutant 8 (mouse) (UniProt Q09143)"}, "ERR Mutant 11 (mouse)": {"target": "ERR Mutant 11 (mouse) (UniProt Q09143)"}, "ERR Mutant 7 (mouse)": {"target": "ERR Mutant 7 (mouse) (UniProt Q09143)"}, "ERR Mutant 4 (mouse)": {"target": "ERR Mutant 4 (mouse) (UniProt Q09143)"}, "human H13 (human)": {"target": "human H13 (human) (UniProt P30825)", "sequence (P30825 other isoform, or with tags, fused parts or gaps)": "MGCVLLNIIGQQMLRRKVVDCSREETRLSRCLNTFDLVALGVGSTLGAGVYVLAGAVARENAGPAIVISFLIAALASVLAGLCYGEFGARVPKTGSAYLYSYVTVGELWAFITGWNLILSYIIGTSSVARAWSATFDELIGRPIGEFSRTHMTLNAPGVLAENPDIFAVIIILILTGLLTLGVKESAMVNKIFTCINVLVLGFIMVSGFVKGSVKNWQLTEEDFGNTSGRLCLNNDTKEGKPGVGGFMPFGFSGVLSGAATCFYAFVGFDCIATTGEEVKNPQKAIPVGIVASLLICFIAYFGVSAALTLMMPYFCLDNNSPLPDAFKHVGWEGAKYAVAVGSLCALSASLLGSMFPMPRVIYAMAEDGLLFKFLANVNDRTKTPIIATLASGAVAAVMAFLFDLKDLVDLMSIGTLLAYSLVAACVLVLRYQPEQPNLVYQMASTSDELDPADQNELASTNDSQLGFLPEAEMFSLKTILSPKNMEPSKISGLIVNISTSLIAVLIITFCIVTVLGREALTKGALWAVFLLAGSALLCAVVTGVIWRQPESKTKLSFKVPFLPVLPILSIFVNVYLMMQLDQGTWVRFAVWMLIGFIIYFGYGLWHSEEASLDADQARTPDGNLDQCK"}, "[3]": {"target": "Chimera I (mouse-human chimeric receptor, first part from ERR) (mouse; human)"}, "ERR Mutant 5 (mouse)": {"target": "ERR Mutant 5 (mouse) (UniProt Q09143)"}, "ERR Mutant 9 (mouse)": {"target": "ERR Mutant 9 (mouse) (UniProt Q09143)"}, "[4]": {"target": "Chimera III (H13 with NcoI-NcoI fragment from ERR) (human / mouse)"}, "ERR Mutant 3 (mouse)": {"target": "ERR Mutant 3 (mouse) (UniProt Q09143)"}, "ERR Mutant 1 (mouse)": {"target": "ERR Mutant 1 (mouse) (UniProt Q09143)"}},
  "data": [
    {"substance": "recombinant MuLV-E, ψCRE/BAG virions (from UniProt P03385 34-469)", "values": [
      {"measurement": "colonies", "setting": "ERR Mutant 6 (mouse)", "value": 500, "unit": "colonies"},
      {"measurement": "numbers of G418-resistant colonies", "setting": "[1]", "value": 0, "unit": "colonies"},
      {"measurement": "colonies", "setting": "ERR Mutant 10 (mouse)", "value": 500, "unit": "colonies"},
      {"measurement": "colonies", "setting": "ERR Mutant 2 (mouse)", "value": 500, "unit": "colonies"},
      {"measurement": "numbers of G418-resistant colonies", "setting": "[2]", "value": "> 1000", "unit": "colonies"},
      {"measurement": "colonies", "setting": "ERR Mutant 8 (mouse)", "value": 500, "unit": "colonies"},
      {"measurement": "colonies", "setting": "ERR Mutant 11 (mouse)", "value": 500, "unit": "colonies"},
      {"measurement": "colonies", "setting": "ERR Mutant 7 (mouse)", "value": 0, "unit": "colonies"},
      {"measurement": "colonies", "setting": "ERR Mutant 4 (mouse)", "value": 500, "unit": "colonies"},
      {"measurement": "numbers of G418-resistant colonies", "setting": "human H13 (human)", "value": 0, "unit": "colonies"},
      {"measurement": "numbers of G418-resistant colonies", "setting": "[3]", "value": 1000, "unit": "colonies"},
      {"measurement": "colonies", "setting": "ERR Mutant 5 (mouse)", "value": 500, "unit": "colonies"},
      {"measurement": "colonies", "setting": "ERR Mutant 9 (mouse)", "value": 500, "unit": "colonies"},
      {"measurement": "numbers of G418-resistant colonies", "setting": "[4]", "value": 1000, "unit": "colonies"},
      {"measurement": "colonies", "setting": "ERR Mutant 3 (mouse)", "value": 500, "unit": "colonies"},
      {"measurement": "colonies", "setting": "ERR Mutant 1 (mouse)", "value": 500, "unit": "colonies"}
    ]}
  ]
}
